Measured values: patent US20250340649A1 (RUTGERS THE STATE UNIVERSITY OF NEW JERSEY, published 2025)

Tests used:
[1] = target: T1, CD16a on NK92 (CD16+) cells (human, UniProt P08637 17-254); assay: flow cytometry, fixed haNK92 (CD16+) cells, tenfold dilutions, anti-histag-FITC
T1 construct: whole, on cells; also called NK92 cells (CD16a+); haNK92 cells (CD16a+)
Description: First, CD16a+NK92 was harvested and washed once using Dulbecco's phosphate-buffered saline (DPBS) supplemented with 2% FBS (2% DPBS-FBS). Next, all the cells were fixed using 3.7% paraformaldehyde for 20 min at RT, followed by washing twice. […] Following washing three times, the secondary antibody, anti-Histag antibody FITC labeled, was added. After washing, the samples were run on Cytoflex using FL1 channel.

[2] = target: T2, Biotinylated Human Fc gamma RIIIA/CD16a (F176) Protein, Avitag, His Tag (Acrobiosystems CDA-H82E8) (human, UniProt P08637 17-208, biotinylated (Avitag)); assay: BLI (Octet), biotinylated CD16a on streptavidin sensor, VHH 1.875-60 nM
T2 construct: also called biotinylated CD16a; CD16a antigen
T2 sequence (P08637 17-208 limits assumed): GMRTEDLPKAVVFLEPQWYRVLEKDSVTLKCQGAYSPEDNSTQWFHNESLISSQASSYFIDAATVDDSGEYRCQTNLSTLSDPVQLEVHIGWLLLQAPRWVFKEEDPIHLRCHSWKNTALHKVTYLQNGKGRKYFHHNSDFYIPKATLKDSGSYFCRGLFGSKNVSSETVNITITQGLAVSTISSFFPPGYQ

biotinylated CD32b = target: T3, biotinylated CD32b (UniProt P31994 46-217, biotinylated); assay: ELISA, biotinylated antigen on streptavidin plate
T3 construct: also called CD32b antigen
T3 sequence (looked up): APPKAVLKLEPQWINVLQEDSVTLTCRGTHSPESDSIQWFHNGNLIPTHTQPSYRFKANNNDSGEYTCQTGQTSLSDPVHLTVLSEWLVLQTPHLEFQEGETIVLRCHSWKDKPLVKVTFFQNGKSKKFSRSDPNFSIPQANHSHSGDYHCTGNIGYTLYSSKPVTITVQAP
Description: The purified VHHs were subjected to functional analysis using ELISA and flow cytometry. For ELISA, 50 μL of biotinylated CD16a, CD16b-NA1, CD16b-NA2, and CD32b were added to the streptavidin-coated plate and incubated for 45 min at RT. Following washing, the 100 μL of 100 nM purified VHHs were added and incubated at RT for 1 h. Next, 100 μL anti-HA tag HRP conjugated secondary antibody was added. Finally, the substrate was added for color development, and the plate was read using OD of 450 nm.
CD32b and skim milk were also used as antigen controls. 3G8 and eBioCB16, which are anti-CD16a/b mAbs were used as antibody controls. […] CD32b is a receptor that is expressed on B cells and responsible for inhibiting B cell activation. One of the disadvantages of mAb-based therapies is the binding of their Fc region to CD32b leading to the diminished activity of humoral immunity.

CD32b on B cells = target: T4, CD32b on B cells (UniProt P31994 43-310); assay: flow cytometry on B cells (CD32b+)
T4 construct: whole, on cells; also called B cells (CD32b+)
T4 sequence (looked up): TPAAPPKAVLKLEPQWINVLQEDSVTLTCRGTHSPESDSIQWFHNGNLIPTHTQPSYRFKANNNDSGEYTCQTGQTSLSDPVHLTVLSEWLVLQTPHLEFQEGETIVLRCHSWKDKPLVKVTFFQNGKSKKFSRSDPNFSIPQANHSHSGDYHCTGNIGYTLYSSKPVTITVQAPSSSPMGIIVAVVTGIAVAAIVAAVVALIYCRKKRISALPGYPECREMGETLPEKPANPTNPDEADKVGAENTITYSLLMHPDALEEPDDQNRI

[3] = target: T2, Biotinylated Human Fc gamma RIIIA/CD16a …; assay: ELISA, biotinylated CD16a on streptavidin plate, tenfold dilutions 0-1000 nM, anti-cMyc-HRP
Description: For ELISA, 50 μL of biotinylated CD16a was added to the streptavidin-coated plate and incubated for 45 min at RT. […] Next, 100 μl anti-cMyc tag HRP conjugated secondary antibody (1:10,000 dilutions) was added. Finally, after washing, the substrate was added for color development, and the plate was read using OD of 450 nm.

CD16b on neutrophils = target: T5, CD16b on neutrophils (human, UniProt O75015 17-200); assay: flow cytometry on neutrophils (CD16b+)
T5 construct: whole, on cells; also called neutrophils (CD16b+)
T5 sequence (O75015 17-200): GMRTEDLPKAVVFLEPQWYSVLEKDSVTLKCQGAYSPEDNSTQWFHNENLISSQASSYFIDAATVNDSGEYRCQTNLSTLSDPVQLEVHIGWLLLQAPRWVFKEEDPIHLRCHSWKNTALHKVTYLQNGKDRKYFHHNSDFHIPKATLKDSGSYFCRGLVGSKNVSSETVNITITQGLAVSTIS
Description: For flow cytometry, haNK92 cells (CD16a+) and Neutrophils (CD16b⁺) were used. […] The human Neutrophil cells were purchased from HemaCare and cultured according to the manufacturer's protocol. First, both cell lines were harvested and washed once using DPBS supplemented with 2% FBS (2% DPBS-FBS). For each sample, 0.5×10⁶ cells were stained with antibody on ice for 60 min. In this experiment, 3G8 monoclonal antibody was used as a positive control. This antibody binds to both CD16a and CD16b. Following washing three times, the secondary antibody, anti-Histag antibody FITC labeled, was added. After washing, the samples were run on Cytoflex using FL2 channel.
In this experiment, NK92 cells (CD16a⁺), neutrophils (CD16b⁺), and B cells (CD32b⁺) were used as cell controls. 3G8 (anti-CD16a/b) and AT10 (anti-CD32a/b) mAbs were used as antibody controls.

[4] = target: T6, Biotinylated Human Fc gamma RIIIB/CD16b (NA1) Protein, His, Avitag (Acrobiosystems CDB-H82E4) (human, UniProt O75015 17-200, biotinylated (Avitag)); assay: BLI (Octet), biotinylated CD16b-NA1 on streptavidin sensor, VHH 1.875-60 nM
T6 construct: NA1 allele; also called CD16b-NAI
T6 sequence (O75015 other isoform, or with tags, fused parts or gaps limits assumed): as the sequence (O75015 17-200) above, with S20R, N66D, I90V counted along it
Description: An Octet® Streptavidin (SA) Biosensor was soaked for at least 10 min in DPBS supplemented with 0.1% Casein, biotinylated CD16a, CD16b-NA1, CD16b-NA2, and HER2 antigens were loaded onto the streptavidin (SA) biosensor until 1 nm shift was reached. Next, the sensor was dipped into the washing buffer (DPBS+0.05% Tween 20+0.1% Casein) for 2 min to reach the baseline. […] Then, in the dissociation step, sensors were dipped into the washing buffer for 5 min to acquire data (Table 5). The data were then analyzed using Octet Data Analysis HT 11.1 software. The sensorgrams were subtracted from the reference and fitted into 1:1 binding model for data analysis. Finally, the affinity and kinetics were analyzed using “Association and Dissociation”.

T1 sequence (P08637 17-254 F176V): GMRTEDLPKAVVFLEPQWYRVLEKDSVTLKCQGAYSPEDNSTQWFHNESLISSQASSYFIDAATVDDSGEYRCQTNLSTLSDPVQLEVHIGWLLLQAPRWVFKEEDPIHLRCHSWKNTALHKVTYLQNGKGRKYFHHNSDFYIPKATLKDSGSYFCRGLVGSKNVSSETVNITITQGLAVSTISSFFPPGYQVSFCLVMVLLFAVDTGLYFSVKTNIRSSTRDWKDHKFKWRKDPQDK

B1: C1 anti-CD16a VHH (VHH)
VHH: QVQLQESGGGLVQAGGSLRLSCAASGRTFRLYRMGWFRQAPGKEREFVGSIKMIDGSTLYGDPVKGRFTISRDNTKFMAYLQMNSLKPEDTAVYYCASVSRVTGSYDSWGQGTQVTVSSYPYDVPDYAHHHHHHHH
notes: also called C1 clone; C1 VHH
For B1, the “EC50 (read off the curve)” value [1] was about 1 nM, the Kd [2] was 1.73 nM and the koff [2] was 0.000479 s⁻¹. The kon [2] was 277000 M⁻¹ s⁻¹, the binding result (biotinylated CD32b) was “no binding (tested: 100 nM)” and the binding result (CD32b on B cells) was “no binding”. The “EC50 (read off the curve)” value [3] was about 0.3 nM, the binding result (CD16b on neutrophils) was “no binding” and the Kd [4] was 119 nM. For the same binder, the koff [4] was 0.0255 s⁻¹ and the kon [4] was 213000 M⁻¹ s⁻¹.
